{"source": "paper PMC5856381", "target": "recombinant haptoglobin Hp1S, C1r-LP processed (rHp 1–1) (human) (UniProt P00738)", "experiment": "non-reducing SDS-PAGE; Coomassie-stained gel of non-reduced protein samples; disulfide-linked dimers and multimers"}
{"substance": "recombinant haptoglobin Hp1S, C1r-LP processed (rHp 1–1) (from UniProt P00738-2 19-101) (natural protein)", "values": [{"measurement": "stoichiometry N", "value": 2}]}
